IntAct's records for PubMed 35152348

B1: Tyrosine-protein phosphatase non-receptor type 22 (Homo sapiens), Q9Y2R2-1 (parent)
chain: MDQREILQKFLDEAQSKKITKEEFANEFLKLKRQSTKYKADKTYPTTVAEKPKNIKKNRYKDILPYDYSRVELSLITSDEDSSYINANFIKGVYGPKAYIATQGPLSTTLLDFWRMIWEYSVLIIVMACMEYEMGKKKCERYWAEPGEMQLEFGPFSVSCEAEKRKSDYIIRTLKVKFNSETRTIYQFHYKNWPDHDVPSSIDPILELIWDVRCYQEDDSVPICIHCSAGCGRTGVICAIDYTWMLLKDGIIPENFSVFSLIREMRTQRPSLVQTQEQYELVYNAVLELFKRQMDVIRDKHSGTESQAKHCIPEKNHTLQADSYSPNLPKSTTKAAKMMNQQRTKMEIKESSSFDFRTSEISAKEELVLHPAKSSTSFDFLELNYSFDKNADTTMKWQTKAFPIVGEPLQKHQSLDLGSLLFEGCSNSKPVNAAGRYFNSKVPITRTKSTPFELIQQRETKEVDSKENFSYLESQPHDSCFVEMQAQKVMHVSSAELNYSLPYDSKHQIRNASNVKHHDSSALGVYSYIPLVENPYFSSWPPSGTSSKMSLDLPEKQDGTVFPSSLLPTSSTSLFSYYNSHDSLSLNSPTNISSLLNQESAVLATAPRIDDEIPPPLPVRTPESFIVVEEAGEFSPNVPKSLSSAVKVKIGTSLEWGGTSEPKKFDDSVILRPSKSVKLRSPKSELHQDRSSPPPPLPERTLESFFLADEDCMQAQSIETYSTSYPDTMENSTSSKQTLKTPGKSFTRSKSLKILRNMKKSICNSCPPNKPAESVQSNNSSSFLNFGFANRFSKPKGPRNPPPTWNI
B2: Proline-serine-threonine phosphatase-interacting protein 1 (Homo sapiens), O43586 (parent)
chain: MMPQLQFKDAFWCRDFTAHTGYEVLLQRLLDGRKMCKDMEELLRQRAQAEERYGKELVQIARKAGGQTEINSLRASFDSLKQQMENVGSSHIQLALTLREELRSLEEFRERQKEQRKKYEAVMDRVQKSKLSLYKKAMESKKTYEQKCRDADDAEQAFERISANGHQKQVEKSQNKARQCKDSATEAERVYRQSIAQLEKVRAEWEQEHRTTCEAFQLQEFDRLTILRNALWVHSNQLSMQCVKDDELYEEVRLTLEGCSIDADIDSFIQAKSTGTEPPAPVPYQNYYDREVTPLTSSPGIQPSCGMIKRFSGLLHGSPKTTSLAASAASTETLTPTPERNEGVYTAIAVQEIQGNPASPAQEYRALYDYTAQNPDELDLSAGDILEVILEGEDGWWTVERNGQRGFVPGSYLEKL
partner: B1 chain
B3: Proline-serine-threonine phosphatase-interacting protein 1 (Homo sapiens), O43586 (parent)
chain: B2 chain
partner: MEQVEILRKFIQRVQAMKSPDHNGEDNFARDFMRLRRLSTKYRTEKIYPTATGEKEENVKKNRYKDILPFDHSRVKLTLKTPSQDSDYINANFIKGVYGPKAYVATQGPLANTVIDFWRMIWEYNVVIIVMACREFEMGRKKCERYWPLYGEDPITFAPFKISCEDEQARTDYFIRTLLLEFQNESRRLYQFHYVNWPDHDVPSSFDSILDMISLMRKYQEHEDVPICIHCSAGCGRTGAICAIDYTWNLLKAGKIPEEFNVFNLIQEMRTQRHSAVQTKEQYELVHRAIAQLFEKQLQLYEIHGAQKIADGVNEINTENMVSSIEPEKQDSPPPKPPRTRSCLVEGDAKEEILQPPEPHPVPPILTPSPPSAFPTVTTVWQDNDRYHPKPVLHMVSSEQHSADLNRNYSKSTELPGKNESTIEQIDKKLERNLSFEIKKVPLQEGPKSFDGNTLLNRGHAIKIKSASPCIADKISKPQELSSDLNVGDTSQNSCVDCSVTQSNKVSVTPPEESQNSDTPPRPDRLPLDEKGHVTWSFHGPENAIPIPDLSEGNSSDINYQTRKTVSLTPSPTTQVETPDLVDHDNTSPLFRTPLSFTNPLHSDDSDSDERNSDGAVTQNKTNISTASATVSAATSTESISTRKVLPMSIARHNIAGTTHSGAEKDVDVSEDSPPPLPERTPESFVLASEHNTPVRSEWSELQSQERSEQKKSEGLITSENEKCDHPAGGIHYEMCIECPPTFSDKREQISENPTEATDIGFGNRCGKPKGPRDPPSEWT
B4: Proline-serine-threonine phosphatase-interacting protein 1 (Homo sapiens), O43586 (parent)
chain: B2 chain
partner: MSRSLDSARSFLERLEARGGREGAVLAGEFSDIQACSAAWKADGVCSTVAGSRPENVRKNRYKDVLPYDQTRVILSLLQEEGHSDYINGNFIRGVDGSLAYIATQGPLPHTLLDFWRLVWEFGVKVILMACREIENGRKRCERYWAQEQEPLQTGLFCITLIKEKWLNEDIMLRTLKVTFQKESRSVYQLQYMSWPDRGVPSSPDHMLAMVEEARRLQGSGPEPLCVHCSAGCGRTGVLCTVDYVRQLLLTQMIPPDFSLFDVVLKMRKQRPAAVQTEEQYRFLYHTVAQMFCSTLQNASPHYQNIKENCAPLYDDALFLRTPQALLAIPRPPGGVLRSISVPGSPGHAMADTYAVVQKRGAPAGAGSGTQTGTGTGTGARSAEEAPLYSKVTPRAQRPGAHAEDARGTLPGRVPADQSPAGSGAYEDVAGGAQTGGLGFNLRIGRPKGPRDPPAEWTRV

Variants of: B1
Details: with ppip1_human PSTPIP1, O43586

effect of a mutation on the interaction	Variant
decreasing interaction strength	W805A
decreasing interaction strength	R799A

Variants of: B2
Details: with PTPN22, Q9Y2R2-1

effect of a mutation on the interaction	Variant
with no effect	D266N
disrupting interaction strength	E250K
decreasing interaction strength	E250Q
with no effect	E277D
with no effect	D384G
with no effect	Q219H
with no effect	R405C
with no effect	V344I
disrupting interaction strength	R228C
with no effect	V122I
with no effect	Y345C
with no effect	E257G
decreasing interaction strength	E257K
decreasing interaction strength	D246N
with no effect	T274M
with no effect	T68M
with no effect	A230T
disrupting interaction strength	W232A
with no effect	R52Q
with no effect	G258A
with no effect	G403R
with no effect	G403E
with no effect	D289H

Variants of: B2
Details: with PTPN22, Q9Y2R2-1
Remark: another data set of the same source

effect of a mutation on the interaction	Variant
decreasing interaction strength	E250K
decreasing interaction strength	R228C
decreasing interaction strength	E257G

Variants of: B2
Details: with PTPN22, Q9Y2R2-1
Remark: another data set of the same source

effect of a mutation on the interaction	Variant
decreasing interaction strength	W232A

Variants of: B3
Details: with ptn12_human PTPN12, Q05209

effect of a mutation on the interaction	Variant
with no effect	D246N
disrupting interaction strength	W232A
with no effect	Q219H
with no effect	T274M
with no effect	A230T
disrupting interaction strength	R228C
with no effect	G258A
with no effect	D266N
with no effect	E257G
disrupting interaction strength	E257K
decreasing interaction strength	E250Q
disrupting interaction strength	E250K

Variants of: B4
Details: with ptn18_human PTPN18, Q99952

effect of a mutation on the interaction	Variant
decreasing interaction strength	D246N
with no effect	Q219H
with no effect	T274M
with no effect	G258A
with no effect	D266N
with no effect	E257G
disrupting interaction strength	E257K
with no effect	A230T
disrupting interaction strength	W232A
disrupting interaction strength	R228C
decreasing interaction strength	E250Q
disrupting interaction strength	E250K
